From patent publication US20230312704A1 (SHANGHAI ESCUGEN BIOTECHNOLOGY, published 2023)
Residue numbers refer to the chain shown, from its start.

T1: mouse CLDN18.2 (mCLDN18.2) (mouse, UniProt P56857 10-264)
T1 construct: Stably expressed on HEK293 cells; the stomach-type isoform is meant; also called mouse mhCLDN18.2; m hCLDN18.2
T1 chain: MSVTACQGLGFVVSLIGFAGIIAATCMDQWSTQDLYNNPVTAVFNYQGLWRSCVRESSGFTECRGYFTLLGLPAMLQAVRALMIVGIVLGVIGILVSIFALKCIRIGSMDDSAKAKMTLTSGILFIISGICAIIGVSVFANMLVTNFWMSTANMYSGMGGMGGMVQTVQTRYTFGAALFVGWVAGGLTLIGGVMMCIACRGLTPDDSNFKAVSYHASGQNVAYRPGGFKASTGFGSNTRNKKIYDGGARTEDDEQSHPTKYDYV

B1: human-mouse chimeric positive control antibody 163E12 (antibody, human IgG1, kappa, V domains shown)
VH: QIQLVQSGPELKKPGETVKISCKASGYTFTNYGMNWVKQAPGKGLKWMGWINTNTGEPTYAEEFKGRFAFSLETSASTAYLQINNLKNEDTATYFCARLGFGNAMDYWGQGTSVTVSS
VL: DIVMTQSPSSLTVTAGEKVTMSCKSSQSLLNSGNQKNYLTWYQQKPGQPPKLLIYWASTRESGVPDRFTGSGSGTDFTLTISSVQAEDLAVYYCQNDYSYPLTFGAGTKLELKR
notes: Human-mouse chimeric antibody expressed in CHOS cells and purified on Protein A. It was detected with an anti-human Fc secondary antibody; also called home-made positive control (Benchmarker) chimeric antibody 163E12
B2: purified recombinant mouse monoclonal antibody 5-G17 (mouse IgG2a, kappa) (antibody, V domains shown)
VH: EVKLVESGGGLVKPGGSLKLSCAASGFTISDYGMAWVRQAPGKGPEWVAFISNLAYSIHYVDTVTGRFTISRENAKNTLYLEMRSLRSEDTAMYYCARMYYGNALDYWGQGTSVTVSS
VL: B1 VL with A15T, S28N, Y100F
notes: Expressed in HEK293 cells and purified on Protein A; also called recombinant and purified mouse IgG2a type 5-G17
B3: purified recombinant mouse monoclonal antibody 5-I10 (mouse IgG2a, kappa) (antibody, V domains shown)
VH: EIQLQQSGAELVKPGASVKISCKAPGYSFTDYNMNWVKQSHGKSLEWIGNINSYYGSTSYNQKFKGKATLTVDRSSSTAYMQLNSLTSEDSAVYYCTNFDRGNSFPYWGHGTLVTVSA
VL: B1 VL with A15V, S22T, P49S, D66E, S71R, D97G, L102F, A106S, K109N, L112I
notes: also called recombinant and purified mouse IgG2a type 5-I10
B4: 5-G17 (mouse hybridoma clone, supernatant) (antibody, V domains shown)
VH: B2 VH
VL: DIVMTQSPSSLTVTTGEKVTMSCKSSQNLLNSGNQKNYLTWYQQKPGQPPKLLIYWASTRESGVPDRFTGSGSGTDFTLTISSVQAEDLAVYYCQNDYSFPLTFGAGTKLELK
notes: Antibody as secreted by the hybridoma; also called subclones 5-G17-30 and 5-G17-6
B5: 5-I10 (mouse hybridoma clone, supernatant) (antibody, V domains shown)
VH: B3 VH
VL: DIVMTQSPSSLTVTVGEKVTMTCKSSQSLLNSGNQKNYLTWYQQKPGQSPKLLIYWASTRESGVPERFTGRGSGTDFTLTISSVQAEDLAVYYCQNGYSYPFTFGSGTNLEIK
notes: Antibody as secreted by the hybridoma; also called subclones 5-I10-33 and 5-I10-18

Tests used:
[1] = target: T2, human CLDN18 splice variant 2 (Claudin 18.2, hCLDN18.2) (human); assay: flow cytometry on HEK293-hCLDN18.2 cells, paraformaldehyde-fixed and non-fixed
T2 construct: The same entry is used for CLDN18.2 in human stomach and gastric cancer FFPE tissue (IHC); also called HEK293-hCLDN18.2; HEK293-CLDN18.2

[2] = target: T3, mouse CLDN18.1 (mCLDN18.1) (mouse, UniProt P56857 1-264); assay: flow cytometry on HEK293-mCLDN18.1 cells, paraformaldehyde-fixed and non-fixed
T3 construct: Stably expressed on HEK293 cells; the lung-type isoform is meant; also called HEK293-mCLDN18.1

[3] = target: T1, mouse CLDN18.2 (mCLDN18.2); assay: flow cytometry on HEK293-mCLDN18.2 cells, paraformaldehyde-fixed and non-fixed
[4] = target: T2, human CLDN18 splice variant 2 (Claudin …); assay: flow cytometry on HEK293-hCLDN18.2 cells, 3-fold dilutions from 10 µg/mL, 8 points
[5] = target: T2, human CLDN18 splice variant 2 (Claudin …); assay: IHC with hybridoma supernatant on FFPE sections of HEK293-hCLDN18.2 cell blocks

Binder | binding result [4] | binding result [5] | other results
B1 |  |  | binding result [1]: binds; binding result [2]: no binding; binding result [3]: binds
B2 | binds |  | 
B3 | binds |  | 
B4 |  | binds | 
B5 |  | binds | 
